Where “and” joins values, the source holds several entries; their conditions need not be identical. Equal values may be shown once.
B1: IstB ATPase, wild type, full length (IS5376, Geobacillus stearothermophilus) (enzyme, UniProt Q45619 1-251, looked up)
chain: MKERIHEYCHRLHLPVMAERWSAMAEYASTHNISYSEFLFRLLEAEIVEKQARSIQTLIKLSKLPYRKTIDTFDFTAQPSVDERRIRELLTLSFIDRKENILFLGPPGIGKTHLAISIGMEAIARGYKTYFITAHDLVNQLRRADQEGKLEKKLRVFVKPTVLIIDEMGYLKLDPNSAHYLFQVIARRYEHAPIILTSNKSFGEWGEIVGDSVLATAMLDRLLHHSIIFNLKGESYRLREKRLQEEKQKDQ
notes: IstB, AAA+ ATPase of the IS21 family member IS5376, Geobacillus stearothermophilus, full length; Tag cleaved on-column with PreScission protease; Assembles into a pentamer of dimers (decamer) on DNA with ATP; also called IstB WT; IstB AAA+ ATPase regulator; source: E. coli BL21 codon-plus (DE3) RIL, purified (Ni-Sepharose, amylose resin, gel filtration); not shown: His6, N-terminal, cleaved; MBP, …
B2: IstB E167Q (Walker B mutant) (enzyme, Geobacillus stearothermophilus, UniProt Q45619 1-251, looked up)
chain: MKERIHEYCHRLHLPVMAERWSAMAEYASTHNISYSEFLFRLLEAEIVEKQARSIQTLIKLSKLPYRKTIDTFDFTAQPSVDERRIRELLTLSFIDRKENILFLGPPGIGKTHLAISIGMEAIARGYKTYFITAHDLVNQLRRADQEGKLEKKLRVFVKPTVLIIDQMGYLKLDPNSAHYLFQVIARRYEHAPIILTSNKSFGEWGEIVGDSVLATAMLDRLLHHSIIFNLKGESYRLREKRLQEEKQKDQ
notes: IstB, AAA+ ATPase of IS5376, Geobacillus stearothermophilus, with the Walker B mutation E167Q; The methods describe only the purification of full-length IstB (His6-MBP tag, cleaved); also called WB; source: purified

Columns and labels:
[1] = molecular target: the molecule itself; assay: cryo-EM structure; IstB wild type with a 60-mer duplex DNA (6.5:1) and 1 mM ATP; 20 mM HEPES pH 7.5, 150 mM NaCl, 5 mM MgCl2, 1 mM DTT; 3.2 Å
[2] = molecular target: the molecule itself; assay: cryo-EM structure; IstA pre-incubated with strand-transfer-complex DNA (3.3:1), then IstB E167Q (5:1 to IstA), 37 °C; 20 mM HEPES pH 7.5, 150 mM NaCl, 5 mM MgCl2, 1 mM ATP, 1 mM DTT; 3.6 Å

Protein	stoichiometry N [1]	stoichiometry N [2]
B1	10 and 8	
B2		10 and 20

Reference: paper PMC11208146, “Molecular basis for transposase activation by a dedicated AAA+ ATPase” (Nature, 2024)
